Measurements from the nanobody polyreactivity screen of Harvey et al. (2022).

Assay: yeast display, Sf9 membrane polyspecificity reagent, FACS + sequencing; frameworks hold sequencing errors
Summary of the method: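 Nanobodies from a synthetic yeast display library (Saccharomyces cerevisiae BJ5465), induced 36–48 hours with galactose, were stained 1 hour at 4 °C with 10% biotinylated, detergent-solubilized Sf9 membrane reagent, enriched on streptavidin microbeads, then FACS-sorted. Anti-HA (expression) and streptavidin (reagent binding) fluorescence set low and high (top ~1%) gates. Polyreactivity labels come from the gate of origin. Genes were colony-PCR amplified, MiSeq 2 × 250 sequenced and filtered by CDR length.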

| Sequence | polyreactivity (PSR sort gate) |
| --- | --- |
| QVQLVESGGGVDQAGGSLRLSCAACGSTIPYYAMGWYRQAPGKERELVAAISASTGSTNYADSVKGRFTISRDNAKNTVYLQMNSLKPEDTAVYYCAKKRSKIKRFGYWGHGTQVTVSS | high polyreactivity |
| QVQLVESGGGVFQAGGSLRLSCAASGSIYAFNPMGWYRQAPGKETEFVASIRSSTGRTYYADSVKGRFTISRDNAKNTVYLQMNSLKPEDTAVYYCAADSPEKPPRRWYITWPDGYWGQGTQVTVSS | low polyreactivity |
| QVQLVESGGGVLQAGGSLRLSCAASGSTFAFYAMVRYREAPGKVRELVAAISRSGGRTYYADSVKGRFTISRDNAKNTVYLQMNSLIPEDTAVYYCAAPSGITTGPHREYDYWGLGTQVTVSS | high polyreactivity |
| QVQLVESGGGVVHAGGSLLLSCAASGRTFFRYVKGWYRQEPGKERELVAAISTRGGSTYYADSVKGRFTISRDNAKNTVYLQMNSLKPEDSAVYYCAADVPTGYDYWGQGTQVTVSS | high polyreactivity |
| QVQLVESGGGVVQAGASLRLSCAASGNIFYGYAMGWYRQAPGKERELVARINWSGSRTYYADSVKGRFTISRDNAKNTVYLQMNSLKPEDTAVYYCNTSTSRVPGNGDYWGQGSQVTVSS | high polyreactivity |
| QVQLVESGGGVVQAGGILSLSCAASGFTFATYAMGWYRQAPGKERELVAGITRSGGSTYYADSVKGRFTNSRYNAKNTVYLQMNSLKPEDTAVYYCNKAYGGDKYSGTYDYWGQGTQVTVSS | high polyreactivity |
| QVQLVESGGGVVQAGGSLRLICAASGLTFDKYTMGRYRQAPGKERELVARISTSGSRTYYADSVKGRFTISRDNAKNTVYLQMNSLIPEDTEVYYCNKDGWIRRRRGYDYWGQGTQVTVSS | high polyreactivity |
| QVQLVESGGGVVQAGGSLRLRCAASGSTVLGYVMGWYRQAPGKERELVAAITRSGGRTYYADSVQGRFTISRDNAKNTVSLQMNSLKPEETAVYYCAALRGPSFHGYGYWGQGTQVTVSS | high polyreactivity |
| QVQLVESGGGVVQAGGSLRLSCAASGFIFSVIVMGWYRQAPGKERELVASIPSGGSPYYADSVKGRFTISRDNAKNTVYLQMNSLKPEDTAVYYCAAEFVRSVEHHPGFDYWGQGTQVTVSS | low polyreactivity |
| QVQLVESGGGVVQAGGSLRLSCAASGFTFARYTMGWYRPAPGKERELVAAISSRGSSTYYADSVKGRFTISRDNAKNTVYLQMNSLKPEDTAVYYCAKAYYTPYGVYVLHYYWGQGTQVTVSS | high polyreactivity |
| QVQLVESGGGVVQAGGSLRLSCAASGFTFAYYATGWYRQAPGKERELVAAISRSGGSTYYADSVKGRFTISRDNAKNTVYLHMNSLKPEDTAVYYCARDQRKLGADFDSWGQRTQVTVSS | high polyreactivity |
| QVQLVESGGGVVQAGGSLRLSCAASGFTFGLYAMGWYRQAPGKERELVAVISSSGGSTYYADSVKGRFTISRDNAKNTVYLQMNSLKPEDTAVYYCAAEWHDYKFDVTYDYWGQGTQVTVSS | low polyreactivity |
| QVQLVESGGGVVQAGGSLRLSCAASGIIFDGNAMGWYRQAPGKERELVAAITSSTDSTYYADSVKGRFTFSRDNAKNTVYLQMNSLKPEDTAVYYCAADYPSKTFDYWGQGTQVTVSS | low polyreactivity |
| QVQLVESGGGVVQAGGSLRLSCAASGIIFLYNVMGWYRQAPAKERELVAAISWRGGTYYAHSVKGRFTISRDNAKNSVYLQMNSLKPEDTAVYYCNTYPAASLYGFSYPYRYDSWGQGTQVTVSS | high polyreactivity |
| QVQLVESGGGVVQAGGSLRLSCAASGRIFGPYTMGWYRQAPGKERELVARISRRGGSTYYADSVKGRFTISRDNAKNTVYLQMNSLKPEDTAVYYCARSQAVYDGWFAKFGYWGQGTQVTVSS | low polyreactivity |
| QVQLVESGGGVVQAGGSLRLSCAASGRIFHYNAMGWYRQAPGKERELVAAISTGGSSNYADSVKGRFTISRDNAKNTVYLQMNSLKPEDTAVYYCAADHPVTYPTSKFDYWGQGTQVTVSS | low polyreactivity |

| Sequence | polyreactivity (PSR sort gate) |
| --- | --- |
| QVQLVESGGGVVQAGGSLRLSCAASGRIFIWYDMGWYRQAPGKERELVAAITQSDDITYYADSVKGRFTISRDNAKNTVYLQMNSLKPEDTAVYYCAARVFETSTPYGYWGQGTQVTVSS | low polyreactivity |
| QVQLVESGGGVVQAGGSLRLSCAASGRIFRNNAMGWYRQAPGKERVLVAGIRGGGSTYYADSVKGRFTISRDNAKNTVYLQMNSLKPEDTAVYYCNAEASRYVGYGAWQTERDYWGQGTQVTVSS | low polyreactivity |
| QVQLVESGGGVVQAGGSLRLSCAASGRIFSSYAMGWYRQAPGKERELVAAITSGGSTDYADSVKGRFSISRDNAKNTVYLQMNSLKPEDTAVYYCAKAFLAPWTYSPYYMFYYWGQGTQVTVSS | low polyreactivity |
| QVQLVESGGGVVQAGGSLRLSCAASGRIFVRNAMGWYRQAPGKERELVAAISRSGGSTSYADSVKGRFTISRDNAKTTVYLQMNSLKPEDTAVYDCAARYARYQYQYDYWGQGTQVTVSS | high polyreactivity |
| QVQLVESGGGVVQAGGSLRLSCAASGRTFLVTALGWYRQAPGKERELVAVITRGGSTNYADSVKGRFTISRDNAKNTVYLQMNSLKPEDTAVYYCAKQFSPYRSYGPVVRYDYWGQGTQVTVSS | low polyreactivity |
| QVQLVESGGGVVQAGGSLRLSCAASGRTIYFYAMGWYRQAPGKERELVAAITGSGGRTYYADSVKGRFTISRDHAKNTVYLQMNSLKTEDTAVYYCAAVPPPLARLYVAAKRFDSWGQGTQVTVSS | low polyreactivity |
| QVQLVESGGGVVQAGGSLRLSCAASGSIFGVYAMGWYRQAPGQERELVAAIDSGSSTDYADSVKGRFTISRDNAKNTVYLQMNSLKPEDTAGYYCYPLDLAPVDYWGQGTQVTVSS | low polyreactivity |
| QVQLVESGGGVVQAGGSLRLSCAASGSIFPYYVMGWYRQAPGKERELVAVISQSGGSTYYADSVKGRFTISRDNAKNTVYLQMNSLKPEDTAVYYCAAESAYDAYDYWGQGTQVTVSS | high polyreactivity |
| QVQLVESGGGVVQAGGSLRLSCAASGSTFSYNAMGWYRQAPGKERELVAAITSTGRTYYADSVKGRFTISRDNAKNTVYLQMNSLKPEDTAVYYCNKRARSEQYSYNYGYYYWGQGTQVTVSS | high polyreactivity |
| QVQLVESGGGVVQAGGSLRLSCAASGSTFTVNGMGWYRQAPGKERELVAAIVGGDGSTYYADSVKGRFTISRDNAMNTVYLQMNSLKPEDTAVYYCAADPPGFTQYGYWGQGTQVTVSS | low polyreactivity |
| QVQLVESGGGVVQAGGSLRLSCAASGSTFYSYAMGWYRPAPGKERELVAAISWDGGRTYYADSVKGRFTISRDNAQNTVYLQMNSMKPEDTAVYYCAARKGELWFPQGGYNYSGQGTQVTVSS | low polyreactivity |
| QVQLVESGGGVVQAGGSLRLSCAASGSTFYYNAMGWNRQAPGKERELVARISRSGGSTYADSVKGRFTISRDNAKNTVYLQMNSLKPEDTAVYYCNADAYGTPEFTSYAVRYDYWGQGTQVTVSS | low polyreactivity |
| QVQLVESGGGVVQAGGSLRLSCSASGRTLDKNVMGWYRQAPGKERELVAAINTGGRTYYADSVKGRFTISRDNAKNTVYLQMNSLKPEDTAVYYCAKEGHVNPRPTVGGDYWGQGTQVTVSS | low polyreactivity |
| QVQLVESGGGVVQAGGSLRLSFAASGSTFPGNAMGWYRQAPGKERELVASISGGGDSTYYADSVKGRFTISRDNAKNTVYLQMNSLKPEDTADYYCAARSTRGHYTAYDYWGQGTQVTVSS | low polyreactivity |
| QVQLVESGGGVVQAGGSLRVSCAATGSIYYRSAMGWYRQAPGKERELVAAISVSGGSTYYADSVKGRFTISRDNAKITDYLQMNSLKPEDTAVYYCAAVVRYGYEYWGQGTQVTVSS | high polyreactivity |
